Assay results reported in patent US20220389113A1, “BINDING PROTEINS TO CUB DOMAIN-CONTAINING PROTEIN (CDCP1)” (COMMONWEALTH SCIENTIFIC AND INDUSTRIAL RESEARCH ORGANISATION, priority 2019, published 2022).

What was measured:
[1] = tested on: CDCP1-positive TKCC05 cells; assay: Lindmo assay, immune-reactive fraction; type: binding, human; settings: 3 h at 4° C.
Experimental: 10D7 and control IgG1κ were labelled with the positron-emitting radionuclide ^89Zr as described (Zeglis B M and Lewis J S (2015) J Vis Exp 96:52521). Yield and purity of the labelled antibodies were determined by radio-TLC and -HPLC (Agilent, Mulgrave, Australia). To assess the impact of radiolabelling on 10D7 binding, the immune-reactive fraction (IRF) of 10D7-^89Zr was determined by Lindmo assay as previously described (Burvenich I J et al (2016) J Nucl Med. 57(6):974-80). Briefly, serially diluted TKCC05 cells (5×10^6-0.156×10^6 cells) were incubated with various amounts of 10D7-^89Zr alone or in the presence of a saturating amount of unlabelled 10D7 antibody (700 nM). After incubation (3 h at 4° C.) cells were centrifuged and the radioactivity of the cell pellet and supernatant was determined using a Wizard 2480 gamma counter (Perkin Elmer, Milton, Australia) and immunoreactive fraction (IRF) was calculated as previously described (Tolmachev V, Orlova A, Andersson K. (2014) Methods Mol Biol. 1060:309-30; Burvenich I J et al (2016) J Nucl Med. 57(6):974-80).
To evaluate whether the ability of antibody 10D7 to disrupt cellular processes that promote PDAC in vitro can be harnessed to target this cancer in vivo, the inventors first evaluated the capacity of this antibody to detect PDAC xenografts in mice. […]

clear cell EOC PDX PH250 = settings: mouse, in vivo
Experimental: Mouse experiments were approved by the University of Queensland Animal Ethics Committee. For PET/CT imaging female NOD.Cg-Prkdc^scid Il2rg^tmwil/SzJ mice (6-8 weeks; 4 per group; Jackson Laboratory, Bar Harbor, Me.) were injected intraperitoneally with cells dissociated from a previously described clear cell EOC PDX designated PH250 (Weroha S J, et al., (2014) Clin Cancer Res. 2014; 20(5):1288-97) (0.2 g/mouse of pelleted cell slurry). CDCP1 expression by PDX PH250 was assessed by immunohistochemical and Western blot analysis as described (He Y, et al., (2016) Oncogene. 35(4):468-78.). 10D7 and IgG1K control were labelled with the positron-emitting radionuclide ^89Zr as described (Zeglis B M, et al., (2015) J Vis Exp. (96): 52521)), and yield and purity determined by radio-TLC and -HPLC (Agilent, Mulgrave, Australia). […] PET image acquisition (30 minutes) was followed by CT for anatomical registration and attenuation correction, with images reconstructed and analyzed using the Inveon Research Workspace (Siemens). Ex vivo bio-distribution was assessed after the final imaging time point. Harvested tumour and organs, cleaned of blood, were weighed and radioactivity quantified using a PerkinElmer 2480 Automatic Gamma Counter (Perkin Elmer, Milton, Australia) and presented as % ID/g of tumour or tissue. […]

B1: ^89Zr-DFO-10D7 (conjugate)
VH: EVQLQQFGAELVKPGASVKISCKASGYSFSDFNIEWLKQSHGKSLEWIGDINPNYDSTNYNQKFKGRATLTVDKSSSTAYMEVRSLTSEDTAVYYCARLGYGYAMDYWGQGTSVTVSS
VL: NIVMTQSPQSMSMSVGERVTLSCKASENVGAYVSWFQQKPDQSPKLLILAASNRYTGVPARFIGSGSATDFTLTISSVQAEDLADYHCGQSYTYPYTFGGGTKLEIKRADAAPTVS
immune-reactive fraction (IRF) [1]: 88.9%
percent injected dose per gram of tissue, tumour (clear cell EOC PDX PH250): 47.7±2.6 % ID/g
